17 molecules from patent publication US20240109962A1 (SPARX BIOSCIENCE, published 2024) can be followed below.

B1: Antibody 7G4 (antibody, V domains shown)
VH: QVQLKQSGPGLVQPSQSLSITCTVSGFSLATYGVHWVRQSPGKGLEWLGVMWRDGSTDYNAVFMSRLSITKDDSKSQVFFKMNSLQADDTAIYYCAKNPYLYGSSHYYAMDYWGQGTSVTVSS
VL: DIVMTQSPSSLSVSAGEKVTMSCKSSQSLLNSENQKNYLAWYQQKPGQPPKLLIYGASTRESGVPDRFTGSGSGTDFTLTISSVQAEDLAVYYCQNDHIYPFTFGSGTKLEIK
notes: Mouse hybridoma mAb purified from ascites
B2: Antibody 13H5 (antibody, V domains shown)
VH: EIQLQQSGPELVKPGTSVKVSCKASGSSFTDYNMYWVKQSHGKSLDWIGYIDPYNGRTTYNQKFRGKATLTVDKSSSTAFMHLNSLTSEDSAVYYCARGDYFDYWGQGTSLTVSS
VL: EIQMTQTTSSLSASLGDRVTISCSASQGISNYLNWFQQKPDGTVKLLIYYTSTLHSGVPSRFSGSGSGTDFSLTISNLDPEDFATYYCQQYSNLPYTFGGGTKLEIK
notes: as for B1
B3: Antibody 2E1_FC3 (antibody, V domains shown)
VH: EVQLVESGGGLVQPGGSLRLSCAVSGYSITSGYYWNWIRQAPGKGLEWVAYISYDGNTNYNPSLKNRFTISRDTSKNTFYLQMNSLRAEDTAVYYCAREESTMITTAWFAYWGQGTLVTVSS
VL: DIQMTQSPSSLSASVGDRVTITCRASENIYSNLAWYQQKPGKAPKLLIYGATNLASGVPSRFSGSGSGTDYTLTISSLQPEDFATYYCQHFWDTPYTFGQGTKVEIK
B4: Antibody 2E1_FD3 (antibody, V domains shown)
VH: B3 VH with T58A
VL: B3 VL
B5: Antibody 2E1_FF4 (antibody, V domains shown)
VH: B3 VH with T58N, N59W
VL: B3 VL
B6: Antibody 2E1_FG4 (antibody, V domains shown)
VH: B3 VH with T58V
VL: B3 VL with T97I
B7: Antibody 2E1_GB11 (antibody, V domains shown)
VH: B3 VH with T58N
VL: B3 VL with S56L
B8: Antibody 2E1_GH6 (antibody, V domains shown)
VH: B3 VH with Y34H, T58N
VL: B3 VL
B9: Antibody 2E1_FH9 (antibody, V domains shown)
VH: B3 VH with T58N, N59L
VL: B3 VL
B10: Antibody 2E1_FH2 (antibody, V domains shown)
VH: B3 VH with Y51S, T58N
VL: B3 VL
B11: Antibody 2E1_GF1 (antibody, V domains shown)
VH: B3 VH with T58N
VL: B3 VL with N28V
B12: Antibody 2E1_GD9 (antibody, V domains shown)
VH: B3 VH with T58N
VL: B3 VL with Y30F
B13: Antibody 2E1_GF9 (antibody, V domains shown)
VH: B3 VH with Y34S, T58N
VL: B3 VL with N28T, S56A
B14: Antibody 2E1_GE11 (antibody, V domains shown)
VH: B3 VH with Y34S, T58N
VL: B3 VL with R24G, N53E
B15: Antibody 2E1_GB1 (antibody, V domains shown)
VH: B3 VH with Y34S, T58N
VL: B3 VL
B16: Antibody 13C5 (antibody, V domains shown)
VH: B1 VH with A30T, Y32F, M51I, D54G, V62A, D73N, L101Q
VL: B1 VL with E33G, D76V, Y100L
notes: as for B1
B17: Antibody 2F1 (antibody, V domains shown)
VH: EVKLEESGGGLVQPGGSMKLSCAASGFTFSDAWMDWVRQSPKKGLEWVAEIRSKSNNHTTYYAESVKGRFTISRDDSKSSVYLQMNSLRAEDTGIYYCTRDWLTYWGQGTLVTVSA
VL: DIVLTQSPASLAVSLGQRATISCRASKSVSTSGYSYMNWYQQKPGQPPKLLIYLASNLESGVPARFSGSGSGTDFTLNIHPVEEEDAATYYCQHSRELPLTFGAGTKLELK
notes: as for B1

Changes are numbered by the printed parent chain.

Chain of LILRB2 antigen of the ELISA of Table 5 (format not specified) (Q8N423 22-460 limits assumed): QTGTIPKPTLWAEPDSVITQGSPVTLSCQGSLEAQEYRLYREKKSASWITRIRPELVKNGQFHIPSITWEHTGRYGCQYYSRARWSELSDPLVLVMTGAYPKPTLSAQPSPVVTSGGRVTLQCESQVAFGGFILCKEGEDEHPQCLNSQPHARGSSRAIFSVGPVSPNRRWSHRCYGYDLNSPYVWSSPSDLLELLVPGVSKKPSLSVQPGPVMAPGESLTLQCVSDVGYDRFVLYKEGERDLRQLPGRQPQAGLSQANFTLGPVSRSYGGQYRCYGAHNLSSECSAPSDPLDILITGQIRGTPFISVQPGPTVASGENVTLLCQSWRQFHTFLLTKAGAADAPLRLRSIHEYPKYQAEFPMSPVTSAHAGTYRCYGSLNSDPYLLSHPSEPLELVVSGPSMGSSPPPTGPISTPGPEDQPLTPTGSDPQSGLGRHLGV
T3 sequence (Q8N423 22-597): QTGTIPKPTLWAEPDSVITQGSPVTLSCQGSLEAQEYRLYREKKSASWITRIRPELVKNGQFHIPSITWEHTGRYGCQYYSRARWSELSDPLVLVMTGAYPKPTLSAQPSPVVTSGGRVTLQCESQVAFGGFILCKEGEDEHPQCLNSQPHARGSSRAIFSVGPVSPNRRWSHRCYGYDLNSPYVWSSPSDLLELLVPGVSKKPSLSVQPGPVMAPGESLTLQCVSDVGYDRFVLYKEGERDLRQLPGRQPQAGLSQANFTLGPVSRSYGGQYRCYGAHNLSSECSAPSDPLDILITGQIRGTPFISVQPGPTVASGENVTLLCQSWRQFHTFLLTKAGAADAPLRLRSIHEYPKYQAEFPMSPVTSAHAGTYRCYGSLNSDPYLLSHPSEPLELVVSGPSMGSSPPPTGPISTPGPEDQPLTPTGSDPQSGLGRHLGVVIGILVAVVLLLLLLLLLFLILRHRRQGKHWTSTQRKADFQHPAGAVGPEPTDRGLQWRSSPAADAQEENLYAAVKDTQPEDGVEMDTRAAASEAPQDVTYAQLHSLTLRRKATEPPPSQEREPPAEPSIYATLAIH
T5 sequence (Q8NHL6 24-650): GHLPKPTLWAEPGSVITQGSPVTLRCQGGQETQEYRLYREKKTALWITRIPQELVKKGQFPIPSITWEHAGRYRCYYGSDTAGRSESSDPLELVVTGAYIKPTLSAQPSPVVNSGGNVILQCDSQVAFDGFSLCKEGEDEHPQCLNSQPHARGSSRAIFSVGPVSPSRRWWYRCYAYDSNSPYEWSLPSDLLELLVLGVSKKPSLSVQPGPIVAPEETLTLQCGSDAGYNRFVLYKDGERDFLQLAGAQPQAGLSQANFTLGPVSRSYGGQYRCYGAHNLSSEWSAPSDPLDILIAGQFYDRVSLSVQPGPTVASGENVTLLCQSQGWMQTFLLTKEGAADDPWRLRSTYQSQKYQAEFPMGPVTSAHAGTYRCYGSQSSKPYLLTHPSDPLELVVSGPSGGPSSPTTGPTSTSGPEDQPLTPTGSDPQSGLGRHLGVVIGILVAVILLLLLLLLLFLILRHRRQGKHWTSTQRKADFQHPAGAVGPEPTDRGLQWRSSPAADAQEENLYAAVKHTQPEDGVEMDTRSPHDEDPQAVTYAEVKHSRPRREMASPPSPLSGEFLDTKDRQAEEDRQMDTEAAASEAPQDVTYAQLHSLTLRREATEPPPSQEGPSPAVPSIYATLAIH

The target of the first experiment is T1, His-tagged human LILRB2 polypeptide (human, UniProt Q8N423 22-460).
T1 construct: SPR analyte; also called His-tagged human LILBR2 polypeptide; not shown: His tag
T1 sequence (Q8N423 22-460 limits assumed): as the sequence (Q8N423 22-460 limits assumed) above
Description: SPR, antibody on CM5 chip, His-LILRB2 analyte, 1:1 model. The procedure: Surface plasmon resonance (SPR) was used to examine binding activities of exemplary anti-LILBR2 antibodies disclosed herein. Briefly, the anti-LILBR2 antibody was diluted in a coating buffer to a concentration of 30 μg/ml, loaded onto CM5 chips at 10 μl/min to allow coating of the antibody on the surface of the CM5 chip. […] Binding affinity was measured based on the 1:1 binding model.
(In general: SPR reads the build-up and loss of mass on a sensor chip optically.)
What is called Kd is the concentration at which binding is half-saturated. As a reminder, the koff is a measure of how fast the partners let go of each other. Usually kon stands for the second-order rate constant of association. In turn, B1 showed a Kd of 1.57 nM, an off-rate constant (koff) of 0.000677 s⁻¹ and a kon of 432000 M⁻¹ s⁻¹.

Another experiment addresses T2, LILRB3-His.
T2 construct: also called His-tagged LILRB3; recombinant LILRB3 protein
Put plainly: ELISA on recombinant His-tagged protein, OD450. In general terms: ELISA stands for enzyme-linked immunosorbent assay.
Regarding B2, the binding result is listed as “no binding”.

Another experiment concerns the target T3, human LILRB2 expressed on cells (293T-LILRB2, CHO-K1-LILRB2) (human, UniProt Q8N423 22-597).
T3 construct: whole, on cells; the cell line is named under assay; also called HEK293T-LILRB2
Description: flow cytometry, blockade of His-tagged HLA-G tetramer binding to 293T-LILRB2 cells; fit table under the graph. The protocol:
(§1) Serial diluted humanized LILRB2 antibodies were then added to the mixture and incubated at room temperature for another 45 minutes. The binding of HLA-G/LILRB2 was detected afterwards using a secondary PE-labeled anti-His tag antibody via flow cytometry.
By IC50 is commonly meant the concentration that inhibits the measured activity by half. As for B3, the 50% inhibitory concentration (IC50) is 0.122 nM and the Span stood at 9690 RFU.

In the case of B4, the IC50 came out at 0.232 nM and the Span was 6750 RFU.

The molecule B5 yielded an IC50 of 0.254 nM and a Span of 6670 RFU.

Another experiment concerns the target T3, human LILRB2 expressed on cells …. Description: flow cytometry, His-HLA-A2 tetramer (competitor) bound to 293T-LILRB2 cells, relative to no antibody. Details: concentration or dose not given beside the values. The protocol: Serial diluted h#2E1 antibodies were then added to the mixture and incubated at room temperature for another 45 minutes. […]
In general terms: In flow cytometry, cells or beads pass a laser one at a time.
In the case of B3, the “% no Ab” value was determined as 52.1%.

Regarding B4, the “% no Ab” value was 51%.

In the case of B6, the “% no Ab” value came out at 55.4%.

In the case of B7, the “% no Ab” value worked out at 50.1%.

As to B8, the “% no Ab” value amounted to 46.6%.

On to B9, for which the “% no Ab” value was found to be 47.1%.

As to B10, the “% no Ab” value was 51.5%.

Regarding B11, the “% no Ab” value came to 47.9%.

For B12, the “% no Ab” value amounted to 52.9%.

Take B5: the “% no Ab” value was determined as 53.3%.

Consider B13, for which the “% no Ab” value was 46.2%.

For the molecule B14, the “% no Ab” value was determined as 46.2%.

On to B15, for which the “% no Ab” value was 50.9%.

In another experiment the target is T4, recombinant human LILRB2 protein (human, UniProt Q8N423 22-460, limits assumed).
T4 construct: also called recombinant LILRB2 protein
T4 sequence (Q8N423 22-460 limits assumed): as above
Description: ELISA, coated recombinant human LILRB2. Details: unit not given here. The protocol: This affinity maturation library was screened against human LILRB2 to identify antibodies having high binding affinity to LILRB2. Briefly, an ELISA plate was coated with 0.1 ug/well recombinant human LILRB2 protein. Serial diluted maturated h#2E1 antibodies were incubated in the LILRB2 coated plate for 2 hrs. The plate was washed and a secondary HRP-labeled anti-human IgG was then added to each well. After being incubated at room temperature for 1 hour, the colorimetric ELISA signals were developed by adding the TMB substrate and reaction was stopped by 1M H3PO4. Table 7 below provides binding activities of exemplary matured antibodies to recombinant LILRB2 protein.
Consider B3, for which the Bmax was 1.29.

With B4, the Bmax was 1.28.

For B6, the Bmax amounted to 1.4.

Consider B7, for which the Bmax is 1.16.

Consider B8, for which the Bmax came to 1.26.

Regarding B9, the Bmax stood at 1.24.

Consider B10, for which the Bmax was 0.989.

Turning to B11, the Bmax was found to be 1.5.

B12: the Bmax came out at 1.39.

With B5, the Bmax was found to be 1.59.

As to B13, the Bmax came to 1.14.

On to B14, for which the Bmax was 1.37.

As for B15, the Bmax came out at 1.01.

Another experiment concerns the target T5, human LILRB1 expressed on 293T cells (human, UniProt Q8NHL6 24-650).
T5 construct: whole, on cells
Put plainly: flow cytometry on 293T transfectants, MFI. The procedure:
(§2) The cells were then immobilized with glutaraldehyde in the presence of 5% defatted milk at room temperature for 2 hours. An anti-LILRB2 antibody (5 μg/ml) was added to each well and incubated at room temperature for 1 hours. An Alex Flour®-labelled goat anti-mouse secondary antibody (1:2,000 dilution) was then added into each well and incubated at room temperature for 30′. The cells were washed twice with PBS after the staining. Fluorescence intensities (MFI) were measured.
B1: the binding result is “no binding (tested: 5 µg/ml)”.

B16: the binding result is on record as “no binding (tested: 5 µg/ml)”.

In the case of B17, the binding result is on record as “no binding (tested: 5 µg/ml)”.

The target in another experiment is T6, human LILRB3 expressed on 293T cells (human, UniProt O75022 24-631).
T6 construct: whole, on cells
Put plainly: flow cytometry on 293T transfectants, MFI. The protocol: as §2
For B1, the binding result is “no binding (tested: 5 µg/ml)”.

For B16, the binding result was “no binding (tested: 5 µg/ml)”.

Consider B2, for which the binding result is “no binding (tested: 5 µg/ml)”.

On to B17, for which the binding result is “no binding (tested: 5 µg/ml)”.

The target in another experiment is T3, human LILRB2 expressed on cells …. Description: flow cytometry, 293T-LILRB2 cells. From the text: The fluorescent signals were detected by flow cytometry.
In turn, B3 showed a Bmax of 456000.

For the molecule B4, the Bmax is 460000.

In the case of B6, the Bmax stood at 434000.

B7 had a Bmax of 627000.

Take B8: the Bmax stood at 678000.

In turn, B9 registered a Bmax of 684000.

As for B10, the Bmax came to 420000.

In turn, B11 displayed a Bmax of 706000.

In turn, B12 had a Bmax of 724000.

Turning to B5, the Bmax was determined as 462000.

Take B13: the Bmax stood at 639000.

The molecule B14 showed a Bmax of 658000.

Regarding B15, the Bmax was found to be 637000.

Another experiment shares this target. Description: flow cytometry, blockade of His-tagged HLA-G tetramer binding to 293T-LILRB2 cells; fit table under the graph. The source holds these as a separate data set. The protocol: as §1
As to B7, the IC50 is 0.59 nM and the Span is 8170 RFU.

The molecule B8 showed an IC50 of 0.596 nM and a Span of 5760 RFU.

B11 registered a half-maximal inhibitory concentration (IC50) of 0.331 nM and a Span of 6980 RFU.

Another experiment addresses LILRB2 antigen of the ELISA of Table 5 (format not specified) (UniProt Q8N423 22-460, limits assumed). Put plainly: ELISA, antibody titration.
B1 returned a Kd of 1.53 nM.

In turn, B16 registered a Kd of 0.314 nM.

As for B2, binding was characterised by a dissociation constant (Kd) of 1.39 nM.

With B17, binding was characterised by a dissociation constant (Kd) of 2.18 nM.
